Values of other authors, collected in article PMC7468149.

Tests used:
VEGFR1 (Homo sapiens) = VEGFR1 (Homo sapiens) (UniProt P17948); test: SPR
VEGFR2 (Homo sapiens) = VEGFR2 (Homo sapiens) (UniProt P35968); test: SPR
UniProt P35968, sequence (P35968 20-1356): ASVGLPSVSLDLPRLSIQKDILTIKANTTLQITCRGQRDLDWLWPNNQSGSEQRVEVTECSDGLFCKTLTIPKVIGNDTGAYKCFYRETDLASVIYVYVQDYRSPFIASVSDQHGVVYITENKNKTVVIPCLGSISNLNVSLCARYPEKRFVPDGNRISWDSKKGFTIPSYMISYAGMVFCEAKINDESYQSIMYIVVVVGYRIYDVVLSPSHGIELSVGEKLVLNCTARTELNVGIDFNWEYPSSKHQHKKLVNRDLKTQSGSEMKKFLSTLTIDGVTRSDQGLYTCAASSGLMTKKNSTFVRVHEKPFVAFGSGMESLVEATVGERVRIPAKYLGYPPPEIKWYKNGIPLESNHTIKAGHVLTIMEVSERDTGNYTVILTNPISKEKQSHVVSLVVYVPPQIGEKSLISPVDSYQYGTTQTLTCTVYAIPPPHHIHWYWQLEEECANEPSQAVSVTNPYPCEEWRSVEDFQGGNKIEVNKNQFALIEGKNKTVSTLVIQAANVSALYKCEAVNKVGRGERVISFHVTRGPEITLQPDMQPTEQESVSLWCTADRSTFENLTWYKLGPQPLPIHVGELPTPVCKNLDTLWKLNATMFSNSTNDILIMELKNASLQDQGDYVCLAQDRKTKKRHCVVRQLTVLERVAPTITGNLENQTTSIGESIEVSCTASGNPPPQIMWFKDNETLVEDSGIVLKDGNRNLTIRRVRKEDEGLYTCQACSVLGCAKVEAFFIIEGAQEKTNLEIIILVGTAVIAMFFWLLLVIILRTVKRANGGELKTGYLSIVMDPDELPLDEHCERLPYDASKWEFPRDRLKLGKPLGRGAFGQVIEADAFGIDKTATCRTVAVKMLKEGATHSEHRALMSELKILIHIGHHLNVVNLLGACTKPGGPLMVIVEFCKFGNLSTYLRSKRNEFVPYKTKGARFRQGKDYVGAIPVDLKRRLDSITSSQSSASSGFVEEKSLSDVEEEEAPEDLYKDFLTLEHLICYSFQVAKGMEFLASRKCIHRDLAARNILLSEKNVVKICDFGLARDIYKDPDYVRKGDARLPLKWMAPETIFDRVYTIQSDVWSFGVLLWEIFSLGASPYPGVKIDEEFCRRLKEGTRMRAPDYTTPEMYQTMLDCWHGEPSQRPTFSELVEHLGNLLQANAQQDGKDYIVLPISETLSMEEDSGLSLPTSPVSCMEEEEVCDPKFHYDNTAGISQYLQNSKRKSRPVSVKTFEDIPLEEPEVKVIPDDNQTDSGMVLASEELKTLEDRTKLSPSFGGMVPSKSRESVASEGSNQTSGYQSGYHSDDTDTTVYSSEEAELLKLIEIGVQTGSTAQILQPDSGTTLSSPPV

UniProt P17948, sequence (P17948 27-1338): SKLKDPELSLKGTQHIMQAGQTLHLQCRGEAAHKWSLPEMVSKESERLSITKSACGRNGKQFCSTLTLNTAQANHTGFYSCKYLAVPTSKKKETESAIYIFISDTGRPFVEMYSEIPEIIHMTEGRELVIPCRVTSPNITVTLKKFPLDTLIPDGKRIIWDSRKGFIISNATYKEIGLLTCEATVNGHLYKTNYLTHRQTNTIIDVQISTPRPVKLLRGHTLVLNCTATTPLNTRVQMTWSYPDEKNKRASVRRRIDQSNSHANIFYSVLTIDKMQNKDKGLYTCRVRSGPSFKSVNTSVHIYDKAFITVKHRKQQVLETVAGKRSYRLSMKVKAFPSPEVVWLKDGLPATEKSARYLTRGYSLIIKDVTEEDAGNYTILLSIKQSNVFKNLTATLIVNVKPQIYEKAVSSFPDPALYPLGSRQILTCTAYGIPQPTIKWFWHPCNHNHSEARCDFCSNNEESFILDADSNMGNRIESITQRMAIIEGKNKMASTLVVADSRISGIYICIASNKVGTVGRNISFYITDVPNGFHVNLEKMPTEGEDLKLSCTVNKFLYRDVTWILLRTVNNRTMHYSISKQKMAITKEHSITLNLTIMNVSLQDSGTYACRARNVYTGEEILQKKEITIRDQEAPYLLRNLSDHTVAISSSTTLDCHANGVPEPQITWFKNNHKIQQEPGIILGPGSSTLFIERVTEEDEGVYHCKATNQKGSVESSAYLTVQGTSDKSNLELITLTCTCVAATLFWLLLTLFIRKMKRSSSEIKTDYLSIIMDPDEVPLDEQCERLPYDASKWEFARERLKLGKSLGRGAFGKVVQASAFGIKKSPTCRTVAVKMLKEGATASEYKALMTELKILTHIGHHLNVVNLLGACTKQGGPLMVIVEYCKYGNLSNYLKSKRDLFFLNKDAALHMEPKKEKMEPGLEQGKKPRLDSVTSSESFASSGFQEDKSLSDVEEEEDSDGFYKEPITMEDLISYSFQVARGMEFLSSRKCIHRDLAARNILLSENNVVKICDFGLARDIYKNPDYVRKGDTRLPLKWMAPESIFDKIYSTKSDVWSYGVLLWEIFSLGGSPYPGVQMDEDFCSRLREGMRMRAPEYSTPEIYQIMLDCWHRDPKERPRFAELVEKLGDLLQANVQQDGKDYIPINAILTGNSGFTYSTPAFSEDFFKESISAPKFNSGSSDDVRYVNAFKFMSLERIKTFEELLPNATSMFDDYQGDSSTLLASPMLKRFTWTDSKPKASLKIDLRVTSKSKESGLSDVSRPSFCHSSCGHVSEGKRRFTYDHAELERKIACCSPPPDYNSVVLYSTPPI

Kd (VEGFR1 (Homo sapiens)): 0.0075 nM
Kd (VEGFR2 (Homo sapiens)): 0.052 nM
Substance: VEGF-A165a (from UniProt P15692)
